Results published in the RNAGym collection of RNA variant scans (doi:10.7554/elife.80360).

B1: CPEB3 Ribozyme (parent)
chain: GGGGGCCACAGCAGAAGCGUUCACGUCGCGGCCCCUGUCAGAUUCUGGUGAAUCUGCGAAUUCUGCUGU

Variants of: B1
Assay: self-cleavage, relative activity (ratio to wild type); higher = more cleavage; co-transcriptional

Variant | self-cleavage
GGGGGCCACAUCAGAAGCGUUCACGUCGCGGCCCCUGUCAGAUUCUGGUGAAUCUUCGAAUUCUGCUGU [G11U G56U] | 0.404
GGGGGCCACAUCAGAAGCGUUCACGUCGCGGCCCCUGUCAGAUUCUGGUGAAUCUACGAAUUCUGCUGU [G11U G56A] | 0.701
GGGGGCCACAUCAGAAGCGUUCACGUCGCGGCCCCUGUCAGAUUCUGGUGAAUCUCCGAAUUCUGCUGU [G11U G56C] | 0.367
GGGGGCCACAUCAGAAGCGUUCACGUCGCGGCCCCUGUCAGAUUCUGGUGAACCUGCGAAUUCUGCUGU [G11U U53C] | 0.329
GGGGGCCACAUCAGAAGCGUUCACGUCGCGGCCCCUGUCAGAUUCUGGUGAAGCUGCGAAUUCUGCUGU [G11U U53G] | 0.487
GGGGGCCACAUCAGAAGCGUUCACGUCGCGGCCCCUGUCAUAUUCUGGUGAAUCUGCGAAUUCUGCUGU [G11U G41U] | 0.359
GGGGGCCACAUCAGAAGCGUUCACGUCGCGGCCCCUGUCAAAUUCUGGUGAAUCUGCGAAUUCUGCUGU [G11U G41A] | 0.217
GGGGGCCACAUCAGAAGCGUUCACGUCGCGGCCCCUGUCAGAUUCUGCUGAAUCUGCGAAUUCUGCUGU [G11U G48C] | 0.878
GGGGGCCACAUCAGAAGCGUACACGUCGCGGCCCCUGUCAGAUUCUGGUGAAUCUGCGAAUUCUGCUGU [G11U U21A] | 0.895
GGGGGCCACAUCAGAAGCGUUCACGUCGCGGCCCCUGUCAGAUUCUGGUGAAUCUGCGAAAUCUGCUGU [G11U U61A] | 0.412
GGGGGCCACAUCAGAAGCGUUCACGUCGCGGCCCCUGUCAGAUUCUGGUGAAUCUGCGAAGUCUGCUGU [G11U U61G] | 0.348
GGGGGCCACAUCAGAAGCGUUCACGUCGCGGCCCCUGUCAGAUUCUGGUGAAUCUGCGAAUUCAGCUGU [G11U U64A] | 0.467
GGGGGCCACAGAAGAAGCGUUCUCGUCGCGGCCCCUGUCAGAUUCUGGUGAAUCUGCGAAUUCUGCUGU [C12A A23U] | 0.742
GGGGGCCACAGAAGAAGCGUUCGCGUCGCGGCCCCUGUCAGAUUCUGGUGAAUCUGCGAAUUCUGCUGU [C12A A23G] | 0.42
GGGGGCCACAUCAGAAGCGUUCACGUCGCGGCCCCUUUCAGAUUCUGGUGAAUCUGCGAAUUCUGCUGU [G11U G37U] | 0.165
GGGGGCCACAUCAGAAGCGGUCACGUCGCGGCCCCUGUCAGAUUCUGGUGAAUCUGCGAAUUCUGCUGU [G11U U20G] | 0.121
GGGGGCCACAUCAGAAGCGCUCACGUCGCGGCCCCUGUCAGAUUCUGGUGAAUCUGCGAAUUCUGCUGU [G11U U20C] | 0.131
GGGGGCCACAUCAGAAGCGAUCACGUCGCGGCCCCUGUCAGAUUCUGGUGAAUCUGCGAAUUCUGCUGU [G11U U20A] | 0.119
GGGGGCCACAUCAGAAGCGUUCACGUCGCGGCCCCUGCCAGAUUCUGGUGAAUCUGCGAAUUCUGCUGU [G11U U38C] | 0.756
GGGGGCCACAUCAGAAGCGUUCACGUCGCGGCCCCUGUCAGAUUCUGGUGAAUCUGCGAAUACUGCUGU [G11U U62A] | 0.38

Variant | self-cleavage
GGGGGCCACAUCAGAAGCGUUCACGUCGCGGCCCCUGUCAGAUUCUGGUGAAUCUGCGAAUCCUGCUGU [G11U U62C] | 0.365
GGGGGCCACAUCAGAAGCGUUCACGUCGCGGCCCCUGUCAGAUUCUGGUGAAUCUGCGAAUGCUGCUGU [G11U U62G] | 0.381
GGGGGCCACAGAAGACGCGUUCACGUCGCGGCCCCUGUCAGAUUCUGGUGAAUCUGCGAAUUCUGCUGU [C12A A16C] | 0.128
GGGGGCCACAGAAGAGGCGUUCACGUCGCGGCCCCUGUCAGAUUCUGGUGAAUCUGCGAAUUCUGCUGU [C12A A16G] | 0.385
GGGGGCCACAUCAGAAGCGUUCACGUCGCGGCCCCUGUCAGAGUCUGGUGAAUCUGCGAAUUCUGCUGU [G11U U43G] | 0.302
GGGGGCCACAUCAGAAGCGUUCACGUCGCGGCCCCUGUCAGAAUCUGGUGAAUCUGCGAAUUCUGCUGU [G11U U43A] | 0.392
GGGGGCCACAGAAGAAGCGUUCACGUCGCGGCCCCUGUCAGAUUCUGGUGAGUCUGCGAAUUCUGCUGU [C12A A52G] | 0.788
GGGGGCCACAGAAGAAGCGUUCACGUCGCGGCCCCUGUCAGAUUCUGGUGACUCUGCGAAUUCUGCUGU [C12A A52C] | 0.571
GGGGGCCACAGAAGAAGCGUUCACGUCGCGGCCCCUGUCAGAUUCUGGUGAUUCUGCGAAUUCUGCUGU [C12A A52U] | 0.603
GGGGGCCACAGAAGAAGGGUUCACGUCGCGGCCCCUGUCAGAUUCUGGUGAAUCUGCGAAUUCUGCUGU [C12A C18G] | 0.113
GGGGGCCACAGAAGAAGUGUUCACGUCGCGGCCCCUGUCAGAUUCUGGUGAAUCUGCGAAUUCUGCUGU [C12A C18U] | 0.143
GGGGGCCACAGAAGAAGCGUUCACGUCGCGGCCCCUGUCAGAUUCUGGUGAAUCUGCGAGUUCUGCUGU [C12A A60G] | 0.372
GGGGGCCACAGAAGAAGCGUUCACGUCGCGGCCCCUGUCAGAUUCUGGUGAAUCUGCGAUUUCUGCUGU [C12A A60U] | 0.257
GGGGGCCACAUCAGAAGCGUUCACGUCGCGGCCCCUGUCAGAUGCUGGUGAAUCUGCGAAUUCUGCUGU [G11U U44G] | 0.734
GGGGGCCACAUCAGAAGCGUUCACGUCGCGGCCCCUGUCAGAUACUGGUGAAUCUGCGAAUUCUGCUGU [G11U U44A] | 0.677
GGGGGCCACAUCAGAAGCGUUCACGUCGCGGCCCCUGUCAGAUCCUGGUGAAUCUGCGAAUUCUGCUGU [G11U U44C] | 0.539
GGGGGCCACAGAAGAAGCGUUCACGUCGCGGCCCCUGUCGGAUUCUGGUGAAUCUGCGAAUUCUGCUGU [C12A A40G] | 0.437
GGGGGCCACAGAAGAAGCGUUCACGUCGCGGCCCCUGUCUGAUUCUGGUGAAUCUGCGAAUUCUGCUGU [C12A A40U] | 0.218
GGGGGCCACAGAAGAAGCGUUCACGUCGCGGCCCCUGUCCGAUUCUGGUGAAUCUGCGAAUUCUGCUGU [C12A A40C] | 0.209
